Data on two proteins can be found in paper PMC3332083 (Biochemistry, 2012).

Data set [1] deals with the molecule itself. In words: SEC. (In general: SEC sorts molecules by how far they enter the pores of the column.)
Data set [2] deals with the molecule itself. In words: dynamic light scattering.

B1: Serum amyloid A isoform SAA2.2 from the CE/J mouse strain, full-length (103 amino acids) (natural protein, mouse (CE/J strain), UniProt P05367 20-122, looked up)
chain: GFFSFVHEAFLGAGDMWRAYTDMKEAGWKDGDKYFHARGNYDAAQRGPGGVWAAEKISDGREAFQEFFGRGHEDTMADQEANRHGRSGKDPNYYRPPGLPDKY
In general, stoichiometry N refers to a count of units in the complex or per binding partner. On to B1, for which, in data set [1], the “stoichiometry N” value worked out at 8 subunits.

B2: Carboxy-terminal truncated SAA2.2 (SAA2.2ΔC), truncated after the ninetieth amino acid residue (domain or fragment, mouse (CE/J strain), UniProt P05367 20-109, looked up)
chain: GFFSFVHEAFLGAGDMWRAYTDMKEAGWKDGDKYFHARGNYDAAQRGPGGVWAAEKISDGREAFQEFFGRGHEDTMADQEANRHGRSGKD
For the protein B2, in data set [2], the “stoichiometry N” value lay in the range of 70 to 170 subunits.
